Test results reported in IntAct's records for PubMed 20485341.

B1: Interleukin-1 receptor-associated kinase 4 (Homo sapiens), Q9NWZ3 (parent)
chain: MNKPITPSTYVRCLNVGLIRKLSDFIDPQEGWKKLAVAIKKPSGDDRYNQFHIRRFEALLQTGKSPTSELLFDWGTTNCTVGDLVDLLIQNEFFAPASLLLPDAVPKTANTLPSKEAITVQQKQMPFCDKDRTLMTPVQNLEQSYMPPDSSSPENKSLEVSDTRFHSFSFYELKNVTNNFDERPISVGGNKMGEGGFGVVYKGYVNNTTVAVKKLAAMVDITTEELKQQFDQEIKVMAKCQHENLVELLGFSSDGDDLCLVYVYMPNGSLLDRLSCLDGTPPLSWHMRCKIAQGAANGINFLHENHHIHRDIKSANILLDEAFTAKISDFGLARASEKFAQTVMTSRIVGTTAYMAPEALRGEITPKSDIYSFGVVLLEIITGLPAVDEHREPQLLLDIKEEIEDEEKTIEDYIDKKMNDADSTSVEAMYSVASQCLHEKKNKRPDIKKVQQLLQEMTAS
B2: Interleukin-1 receptor-associated kinase 4 (Homo sapiens), Q9NWZ3 (parent)
chain: B1 chain
partner: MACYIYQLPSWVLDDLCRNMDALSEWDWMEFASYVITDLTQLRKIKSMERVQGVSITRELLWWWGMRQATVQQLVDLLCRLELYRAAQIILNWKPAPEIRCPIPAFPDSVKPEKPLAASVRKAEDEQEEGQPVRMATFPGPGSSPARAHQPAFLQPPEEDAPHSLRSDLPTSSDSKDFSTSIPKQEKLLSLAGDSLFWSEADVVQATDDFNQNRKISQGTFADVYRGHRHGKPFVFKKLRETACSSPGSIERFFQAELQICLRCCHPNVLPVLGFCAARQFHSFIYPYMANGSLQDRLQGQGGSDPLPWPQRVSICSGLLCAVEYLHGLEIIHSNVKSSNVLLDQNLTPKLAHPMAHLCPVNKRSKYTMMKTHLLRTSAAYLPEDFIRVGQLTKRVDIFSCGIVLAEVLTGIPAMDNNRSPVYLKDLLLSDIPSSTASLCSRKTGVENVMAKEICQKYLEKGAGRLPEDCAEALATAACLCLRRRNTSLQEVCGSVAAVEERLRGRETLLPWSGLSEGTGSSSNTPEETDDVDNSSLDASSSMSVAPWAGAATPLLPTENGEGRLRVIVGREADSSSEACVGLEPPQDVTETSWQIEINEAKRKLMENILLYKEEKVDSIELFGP

Variants of: B1
Settings: with MYD88, Q99836-1
Chain of MYD88, Q99836-1 (Q99836 whole entry): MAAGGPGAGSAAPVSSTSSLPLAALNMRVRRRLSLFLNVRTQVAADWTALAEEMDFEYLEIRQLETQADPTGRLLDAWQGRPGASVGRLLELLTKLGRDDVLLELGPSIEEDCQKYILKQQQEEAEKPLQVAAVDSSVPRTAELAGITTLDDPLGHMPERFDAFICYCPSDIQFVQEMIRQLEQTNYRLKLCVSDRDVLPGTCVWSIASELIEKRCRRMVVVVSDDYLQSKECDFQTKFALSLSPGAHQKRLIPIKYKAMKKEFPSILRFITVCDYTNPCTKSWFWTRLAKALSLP

Row | Variant | effect of a mutation on the interaction
1 | MNKPITPSTYVRCLNEGLIEKLSDFIDPQEGWKKLAVAIKKPSGDDRYNQFHIRRFEALLQTGKSPTSELLFDWGTTNCTVGDLVDLLIQNEFFAPASLLLPDAVPKTANTLPSKEAITVQQKQMPFCDKDRTLMTPVQNLEQSYMPPDSSSPENKSLEVSDTRFHSFSFYELKNVTNNFDERPISVGGNKMGEGGFGVVYKGYVNNTTVAVKKLAAMVDITTEELKQQFDQEIKVMAKCQHENLVELLGFSSDGDDLCLVYVYMPNGSLLDRLSCLDGTPPLSWHMRCKIAQGAANGINFLHENHHIHRDIKSANILLDEAFTAKISDFGLARASEKFAQTVMTSRIVGTTAYMAPEALRGEITPKSDIYSFGVVLLEIITGLPAVDEHREPQLLLDIKEEIEDEEKTIEDYIDKKMNDADSTSVEAMYSVASQCLHEKKNKRPDIKKVQQLLQEMTAS [V16E;R20E] | disrupting interaction
2 | MNKPITPSTYVACLNVGLIRKLSDFIDPQEGWKKLAVAIKKPSGDDRYNQFHIRRFEALLQTGKSPTSELLFDWGTTNCTVGDLVDLLIQNEFFAPASLLLPDAVPKTANTLPSKEAITVQQKQMPFCDKDRTLMTPVQNLEQSYMPPDSSSPENKSLEVSDTRFHSFSFYELKNVTNNFDERPISVGGNKMGEGGFGVVYKGYVNNTTVAVKKLAAMVDITTEELKQQFDQEIKVMAKCQHENLVELLGFSSDGDDLCLVYVYMPNGSLLDRLSCLDGTPPLSWHMRCKIAQGAANGINFLHENHHIHRDIKSANILLDEAFTAKISDFGLARASEKFAQTVMTSRIVGTTAYMAPEALRGEITPKSDIYSFGVVLLEIITGLPAVDEHREPQLLLDIKEEIEDEEKTIEDYIDKKMNDADSTSVEAMYSVASQCLHEKKNKRPDIKKVQQLLQEMTAS [R12A] | disrupting interaction
3 | MNKPITPSTYVRCLNVGLIRKLSDFIDPQEGWKKLAVAIKKPSGDDRYNQFHIRRFEALLQTGKSPTSELLFDWGTTECTVGDLVDLLIQNEFFAPASLLLPDAVPKTANTLPSKEAITVQQKQMPFCDKDRTLMTPVQNLEQSYMPPDSSSPENKSLEVSDTRFHSFSFYELKNVTNNFDERPISVGGNKMGEGGFGVVYKGYVNNTTVAVKKLAAMVDITTEELKQQFDQEIKVMAKCQHENLVELLGFSSDGDDLCLVYVYMPNGSLLDRLSCLDGTPPLSWHMRCKIAQGAANGINFLHENHHIHRDIKSANILLDEAFTAKISDFGLARASEKFAQTVMTSRIVGTTAYMAPEALRGEITPKSDIYSFGVVLLEIITGLPAVDEHREPQLLLDIKEEIEDEEKTIEDYIDKKMNDADSTSVEAMYSVASQCLHEKKNKRPDIKKVQQLLQEMTAS [N78E] | disrupting interaction
4 | MNKPITPSTYVRCLNVGLIRKLSDFIDPQEGWKKLAVAIKKPSGDDRYNQFHIRRFEALLQTGKSPTSELLFDWGETNCTVGDLVDLLIQNEFFAPASLLLPDAVPKTANTLPSKEAITVQQKQMPFCDKDRTLMTPVQNLEQSYMPPDSSSPENKSLEVSDTRFHSFSFYELKNVTNNFDERPISVGGNKMGEGGFGVVYKGYVNNTTVAVKKLAAMVDITTEELKQQFDQEIKVMAKCQHENLVELLGFSSDGDDLCLVYVYMPNGSLLDRLSCLDGTPPLSWHMRCKIAQGAANGINFLHENHHIHRDIKSANILLDEAFTAKISDFGLARASEKFAQTVMTSRIVGTTAYMAPEALRGEITPKSDIYSFGVVLLEIITGLPAVDEHREPQLLLDIKEEIEDEEKTIEDYIDKKMNDADSTSVEAMYSVASQCLHEKKNKRPDIKKVQQLLQEMTAS [T76E] | disrupting interaction
5 | MNKPITPSTYVRCLNVGLIRKLSDFIDPQEGWKKLAVAIKKPSGDDRYNQFHIRRFEALLQTGKSPTSKLLFDWGTTNCTVGDLVDLLIQNEFFAPASLLLPDAVPKTANTLPSKEAITVQQKQMPFCDKDRTLMTPVQNLEQSYMPPDSSSPENKSLEVSDTRFHSFSFYELKNVTNNFDERPISVGGNKMGEGGFGVVYKGYVNNTTVAVKKLAAMVDITTEELKQQFDQEIKVMAKCQHENLVELLGFSSDGDDLCLVYVYMPNGSLLDRLSCLDGTPPLSWHMRCKIAQGAANGINFLHENHHIHRDIKSANILLDEAFTAKISDFGLARASEKFAQTVMTSRIVGTTAYMAPEALRGEITPKSDIYSFGVVLLEIITGLPAVDEHREPQLLLDIKEEIEDEEKTIEDYIDKKMNDADSTSVEAMYSVASQCLHEKKNKRPDIKKVQQLLQEMTAS [E69K] | disrupting interaction

Variants of: B2
Settings: with irak2_human IRAK2, O43187

Row | Variant | effect of a mutation on the interaction
6 | MNKPITPSTYVRCLNVGLIRKLSDFIDPQEGWKKLAVAIKKPSGDDRYNQFHIDRFEALLQTGKSPTSELLFDWGTTNCTVGDLVDLLIQNEFFAPASLLLPDAVPKTANTLPSKEAITVQQKQMPFCDKDRTLMTPVQNLEQSYMPPDSSSPENKSLEVSDTRFHSFSFYELKNVTNNFDERPISVGGNKMGEGGFGVVYKGYVNNTTVAVKKLAAMVDITTEELKQQFDQEIKVMAKCQHENLVELLGFSSDGDDLCLVYVYMPNGSLLDRLSCLDGTPPLSWHMRCKIAQGAANGINFLHENHHIHRDIKSANILLDEAFTAKISDFGLARASEKFAQTVMTSRIVGTTAYMAPEALRGEITPKSDIYSFGVVLLEIITGLPAVDEHREPQLLLDIKEEIEDEEKTIEDYIDKKMNDADSTSVEAMYSVASQCLHEKKNKRPDIKKVQQLLQEMTAS [R54D] | disrupting interaction
7 | MNKPITPSTYVRCLNVGLIRKLSDFIDPQEGWKKLAVAIKKPSGDDRYNQFHIRRFEALLQTGKSPTSELLFDWGTTNCTVGDLVDLLIQNEFFKPASLLLPDAVPKTANTLPSKEAITVQQKQMPFCDKDRTLMTPVQNLEQSYMPPDSSSPENKSLEVSDTRFHSFSFYELKNVTNNFDERPISVGGNKMGEGGFGVVYKGYVNNTTVAVKKLAAMVDITTEELKQQFDQEIKVMAKCQHENLVELLGFSSDGDDLCLVYVYMPNGSLLDRLSCLDGTPPLSWHMRCKIAQGAANGINFLHENHHIHRDIKSANILLDEAFTAKISDFGLARASEKFAQTVMTSRIVGTTAYMAPEALRGEITPKSDIYSFGVVLLEIITGLPAVDEHREPQLLLDIKEEIEDEEKTIEDYIDKKMNDADSTSVEAMYSVASQCLHEKKNKRPDIKKVQQLLQEMTAS [A95K] | disrupting interaction
8 | MNKPITPSTYVRCLNVGLIRKLSDDIDPQEGWKKLAVAIKKPSGDDRYNQFHIRRFEALLQTGKSPTSELLFDWGTTNCTVGDLVDLLIQNEFFAPASLLLPDAVPKTANTLPSKEAITVQQKQMPFCDKDRTLMTPVQNLEQSYMPPDSSSPENKSLEVSDTRFHSFSFYELKNVTNNFDERPISVGGNKMGEGGFGVVYKGYVNNTTVAVKKLAAMVDITTEELKQQFDQEIKVMAKCQHENLVELLGFSSDGDDLCLVYVYMPNGSLLDRLSCLDGTPPLSWHMRCKIAQGAANGINFLHENHHIHRDIKSANILLDEAFTAKISDFGLARASEKFAQTVMTSRIVGTTAYMAPEALRGEITPKSDIYSFGVVLLEIITGLPAVDEHREPQLLLDIKEEIEDEEKTIEDYIDKKMNDADSTSVEAMYSVASQCLHEKKNKRPDIKKVQQLLQEMTAS [F25D] | disrupting interaction
9 | MNKPITPSTYVRCLNVGLIRKLSDFIDPQEGWKKLAVAIKKPSGDDRYNQDHIRRFEALLQTGKSPTSELLFDWGTTNCTVGDLVDLLIQNEFFAPASLLLPDAVPKTANTLPSKEAITVQQKQMPFCDKDRTLMTPVQNLEQSYMPPDSSSPENKSLEVSDTRFHSFSFYELKNVTNNFDERPISVGGNKMGEGGFGVVYKGYVNNTTVAVKKLAAMVDITTEELKQQFDQEIKVMAKCQHENLVELLGFSSDGDDLCLVYVYMPNGSLLDRLSCLDGTPPLSWHMRCKIAQGAANGINFLHENHHIHRDIKSANILLDEAFTAKISDFGLARASEKFAQTVMTSRIVGTTAYMAPEALRGEITPKSDIYSFGVVLLEIITGLPAVDEHREPQLLLDIKEEIEDEEKTIEDYIDKKMNDADSTSVEAMYSVASQCLHEKKNKRPDIKKVQQLLQEMTAS [F51D] | disrupting interaction
10 | MNKPITPSTYVRCLNVGLIRKLSDFIDPQEGWKKLAVAIKKPSGDDRYNKFHIRRFEALLQTGKSPTSELLFDWGTTNCTVGDLVDLLIQNEFFAPASLLLPDAVPKTANTLPSKEAITVQQKQMPFCDKDRTLMTPVQNLEQSYMPPDSSSPENKSLEVSDTRFHSFSFYELKNVTNNFDERPISVGGNKMGEGGFGVVYKGYVNNTTVAVKKLAAMVDITTEELKQQFDQEIKVMAKCQHENLVELLGFSSDGDDLCLVYVYMPNGSLLDRLSCLDGTPPLSWHMRCKIAQGAANGINFLHENHHIHRDIKSANILLDEAFTAKISDFGLARASEKFAQTVMTSRIVGTTAYMAPEALRGEITPKSDIYSFGVVLLEIITGLPAVDEHREPQLLLDIKEEIEDEEKTIEDYIDKKMNDADSTSVEAMYSVASQCLHEKKNKRPDIKKVQQLLQEMTAS [Q50K] | disrupting interaction
